B1: human ICOS ectodomain (residues 21-138), untagged, disulfide-linked homodimer [human] / human ICOS-L ectodomain (residues 19-248), His-tagged, immobilised on Ni-NTA biosensors [human] (parent)
chain 1: EINGSANYEMFIFHNGGVQILCKYPDIVQQFKMQLLKGGQILCDLTKTKGSGNTVSIKSLKFCHSQLSNNSVSFFLYNLDHSHANYYFCNLSIFDPPPFKVTLTGGYLHIYESQLCCQ
chain 2: DTQEKEVRAMVGSDVELSCACPEGSRFDLNDVYVYWQTSESKTVVTYHIPQNSSLENVDSRYRNRALMSPAGMLRGDFSLRLFNVTPQDEQKFHCLVLSQSLGFQEVLSVEVTLHVAANFSVPVVSAPHSPSQDELTFTCTSINGYPRPNVYWINKTDNSLLDQALQNDTVFLNMRGLYDVVSVLRIARTPSVNIGCCIENVLLQQNLTVGSQTGNDIGERDKITENPVS

Variants of: B1
Test: BLI
Settings: with human ICOS-L ectodomain (residues 19-248), parent: 9.8 nM, read off a plot
In the case of chain 1 EINGSANYEMFIFHNGGVQILCKYPDIVQQFKMQLLKGGQILCDLTKTKGSGNTVSIKSLKFCHSQLSNNSVSFFLYNLDHSHANYYFCQLSIFDPPPFKVTLTGGYLHIYESQLCCQ, the Kd is reported as 2.7 nM.

Same assay, conditions: with human ICOS-L ectodomain (residues 19-248), parent: 0.0033, read off a plot
chain 1 EINGSANYEMFIFHNGGVQILCKYPDIVQQFKMQLLKGGQILCDLTKTKGSGNTVSIKSLKFCHSQLSNNSVSFFLYNLDHSHANYYFCQLSIFDPPPFKVTLTGGYLHIYESQLCCQ gave a koff of 0.0021 s⁻¹.

Same assay, conditions: with human ICOS-L ectodomain (residues 19-248), parent: 3.3e+05, read off a plot
Variant chain 1 EINGSANYEMFIFHNGGVQILCKYPDIVQQFKMQLLKGGQILCDLTKTKGSGNTVSIKSLKFCHSQLSNNSVSFFLYNLDHSHANYYFCQLSIFDPPPFKVTLTGGYLHIYESQLCCQ has a kon of 730000 M⁻¹ s⁻¹.

— PMC7545189, “Structural characterization of the ICOS/ICOS-L immune complex reveals high molecular mimicry by therapeutic antibodies” (Nature Communications, 2020)
